Results on 21 sequences are retold here after the supplement of paper PMC9170038.

In this data set the test system is MS2 coat protein. The experiment in a line: apparent KD of MS2 coat protein; designed switch direction (-1 OFF switch, 1 ON switch): 1; higher = weaker reporter binding. An outline of the steps:
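Stalled E. coli RNA polymerase transcribed designed RNA switches on Illumina chips, which were then titrated with SNAP-549-labelled MS2 coat protein, doubling from 0.7 or 1.5 nM to 3 µM. Steps lasted from 0.8–1.5 h at the lowest concentration to 10–20 min at the highest. The apparent KD is each design's median over clusters of curve-fitted normalised fluorescence.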

Where [1] appears, read: Eterna round: R95, input ligand: FMN 200 uM.
Where [2] appears, read: Eterna round: R95, input ligand: microRNA oligo, concentration not stated.
Setting [3] is: Eterna round: R95, input ligand: none.
[4] abbreviates: input ligand: microRNA oligo, concentration not stated.

For “CCGCGCUGUCGAGAGGAUAUGCGGUGAUGGACAUGAGGAUCACCCAUGUUAGCGAUAGCAUUACUGUAGAAGGCUCUACAGCGGC [JL-ss2-3.10 ViennaUCT mod] (puzzle: Same State 2)”, the “apparent KD of MS2 coat protein” value is 12.9 nM under setting [1], 18.3 nM under setting [2] and 21.3 nM under setting [3].
As for “CCGCUCUAUGGAGGAUAUGGGCCUGCCCGGGAUAACGGGCCUAAUACAUGAGGAUCACCCAUGUCCCAGAAGGCCGCUAGAGCC [Errexexe] (Eterna round: R96, puzzle: Same State NG 2)”, the “apparent KD of MS2 coat protein” value amounted to 120 nM (input ligand: FMN 200 uM), 348 nM under setting [4] and 471 nM (input ligand: none).
The like results for “CCGGCAAGUAUAGGAUAUCCCGCUACAGAAGCGGGAGAAGGGUGCCAAACAUGAGGAUCACCCAUGUACACCGGAAAUAUAUAA [Soorve] (Eterna round: R96, puzzle: Same State NG 1)” were, in that order, 36.4 nM, 31.2 nM and 34.6 nM.
The like results for “CCGGGUAAUGGAGGAUAUGGAGCCUUAUUGGCUCCAGAAGGUCAAUAACAUGAGGAUCACCCAUGUCCGGCGGUCAAUAGACCG [Eli NG1ss - 68] (Eterna round: R96, puzzle: Same State NG 1)” were, in that order, 87.5 nM, 202 nM and 775 nM.
The like results for “CCGGUUAAUGGAGGAUAUGGAGCCUUAUUGGCUCCAGAAGGCUAACAUGAGGAUCACCCAUGUUUACCGGCGGUCAAUAGACCG [Eli NG1ss - 62] (Eterna round: R96, puzzle: Same State NG 1)” were, in that order, 11 nM, 11 nM and 18.8 nM.
“CCGGUUUAUGGAGGAUAUGGAGCCUUAUUGGCUCCAGAAGGCUAAUAACAUGAGGAUCACCCAUGUCGGCGGUCUAAUGACCGA [Eli NG1ss - 56] (Eterna round: R96, puzzle: Same State NG 1)”: the “apparent KD of MS2 coat protein” value under setting [4] was determined as 21.8 nM.
For the sequence “CCGGUUUAUGGAGGAUAUGGAGCCUUAUUGGCUCCAGAAGGUCAAUAACAUGAGGAUCACCCAUGUCCGGCGGUCAAUAGACCG [Eli NG1ss - 69] (Eterna round: R96, puzzle: Same State NG 1)”, the “apparent KD of MS2 coat protein” value is, setting by setting: (input ligand: FMN 200 uM) 120 nM; under setting [4], 146 nM; (input ligand: none) 349 nM.
The like results for “CCUUAGUACAAUUUAGAUCUACAUGAGGAUCACCCAUGUACUGAGGAUAUCAGCUCGAAUAGAGCUGAGAAGGCAGAAGUACUU [SSNG3/7-A1] (Eterna round: R96, puzzle: Same State NG 3)” were, in that order, 60.3 nM, 154 nM and 130 nM.
The like results for “CCUUGUAGCGGAGGAUAUGGGCCUCACUCAGUCAAAGAGUGAGAAACAUGAGGAUCACCCAUGUCCCAGAAGGCCGCUGCAUGG [Ridizaer] (Eterna round: R96, puzzle: Same State NG 2)” were, in that order, 12.1 nM, 13.8 nM and 19.1 nM.
Regarding “CGACACACGGCAGGAUAUGCUUAGCAAAGCUAAGCAGAAGGGCCUCAUGUCGUGGAAACCUGACAUGAGGAUCACCCAUGUCGG [Omei SS(NG)1 Cv3] (Eterna round: R96, puzzle: Same State NG 1)”, the “apparent KD of MS2 coat protein” value was determined as 23.8 nM (input ligand: FMN 200 uM), 11.6 nM under setting [4] and 37.6 nM (input ligand: none).
The like results for “CGACACACGGCAGGAUAUGCUUAGCAAAGCUAAGCAGAAGGGCCUCAUGUCGUGGAAACGUGACAUGAGGAUCACCCAUGUCGC [Omei SS(NG)1 C] (Eterna round: R96, puzzle: Same State NG 1)” were, in that order, 31 nM, 14.6 nM and 19.9 nM.
The like results for “CGAGAGUGCGUAGGAUAUCCGAAAGGAAGUGUAGGAGAAGGGCGGAACGCUCAUCGAAAACAUGAGGAUCACCCAUGUACAAAU [PowerStrip SSNG 1.17] (Eterna round: R96, puzzle: Same State NG 1)” were, in that order, 24.7 nM, 62.7 nM and 43.9 nM.
The like results for “CGAGCCGGCACUGAGGAUAUUCAUAUUUAAACAUGAGGAUCACCCAUGUAGGCCAGAAGGCCUUGGGAGAAGGCAGGUCGGCUCC [salish99_ss2_r3_080] (Eterna round: R96, puzzle: Same State 2)” were, in that order, 22.3 nM, 220 nM and 312 nM.
As for “CGAGCCGGCACUGAGGAUAUUCAUAUUUAAACAUGAGGAUCACCCAUGUAGGCCAGAAGGCCUUGGGAGAAGGCAGGUCGGCUCC [salish99_ss2_r3_080] (puzzle: Same State 2)”, the “apparent KD of MS2 coat protein” value by setting is: under setting [1], 22.6 nM; under setting [2], 279 nM; under setting [3], 480 nM.
For “CGAUGUGAGUCAGGAUAUGGGUUAUCACUCCACAUGAGGAUCACCCAUGUAAAGAGGCCAAGGAGCCAGAAGGGACAUACAUCU [Zaorso] (Eterna round: R96, puzzle: Same State NG 2)”, the “apparent KD of MS2 coat protein” value turned out to be 1520 nM (input ligand: FMN 200 uM), 14.2 nM under setting [4] and 50.8 nM (input ligand: none).
Turning to “CGGCGCUGUCGAGAGGAUAUGCGGUGAUGGACAUGAGGAUCACCCAUGUUAGCGAUAGCAUCACGGUAGAAGGCUCUACGGCUGC [Soteed Omei mod 19] (puzzle: Same State 2)”, the “apparent KD of MS2 coat protein” value under setting [2] is 9.83 nM.
As to “CGGCGCUGUCGAGAGGAUAUGCGGUGAUGGACAUGAGGAUCACCCAUGUUAGCGAUAGCAUUACGGUAGAAGGCUCUACAGUUGC [Soteed Omei mod 8] (puzzle: Same State 2)”, the “apparent KD of MS2 coat protein” value reads like this: under setting [1], 19.2 nM; under setting [2], 74.9 nM; under setting [3], 66.9 nM.
“CGUAGGAUAUGCAGAGGAUCACCCUGUAGAAGGACGAUUACACAGGAUAUGCAGAGGAUCACCCUGUAGAAGGGUGACUAAUCU [pwkr ssNG3 DX 2xF5 +2xFMN.3] (Eterna round: R96, puzzle: Same State NG 3)”: the “apparent KD of MS2 coat protein” value by setting is: (input ligand: FMN 200 uM) 25.8 nM; under setting [4], 34.4 nM; (input ligand: none) 55.7 nM.
On to “CGUCCAGCCUGAGCUGGACAAAAGCAUGUACAUGAGGAUCACCCAUGUUCAUGUACAAGCUUUUUGCUCGUCUUAGA [salish99_208a_r3_072] (puzzle: Sensor for hsa-mir-208a)”, for which the “apparent KD of MS2 coat protein” value is, setting by setting: under setting [1], 477 nM; under setting [2], 15.3 nM; under setting [3], 432 nM.
The like results for “CGUCCAGCCUGAGCUGGACAAAAGCAUGUACAUGAGGAUCACCCAUGUUCAUGUACAAGCUUUUUGCUCGUCUUAGU [salish99_208a_r3_073] (puzzle: Sensor for hsa-mir-208a)” were, in that order, 557 nM, 14.5 nM and 646 nM.
The like results for “CGUCCGGCCUGAGCUGGACGGAUGCAUGUACAUGAGGAUCACCCAUGUUCAUGUGCAGGCUUUUUGCUCGUCUUGUG [salish99_mir208a_modof_jandersonlee_002] (puzzle: Sensor for hsa-mir-208a)” were, in that order, 20.1 nM, 9.62 nM and 18.1 nM.
